Experimental data from patent US20110118131A1 (published 2011).

Each binder was assayed against T1, IL-1β (UniProt P01584 117-269) (assay: Biacore, periplasmic extract).
T1 construct: Antigen immobilised on the Biacore chip

Row | fold difference in affinity vs original [fold] | binding result | Binder
1 | 4.49 |  | XPA23 light chain L96W (Fab, V domains shown) VH: EVQLLESGGGLVQPGGSLRLSCAASGFTFSKYFMFWVRQAPGKGLEWVSVISPSGGMTRYADSVKGRFTISRDNSKNTLYLQMNSLRAEDTAVYYCARVGYGGNSDYWGQGTLVTVSS VL: DIQMTQSPSSVSASVGDRLTIICRASQDINRWLAWYQQTPGNAPKLLIHSATSLQSGVPSRFSGSGSGTDFTLTINSLQPEDFATYYCQQADSFPWTFGGGTKVEIK
2 | 0.61 |  | XPA23 light chain N30A (Fab, V domains shown) VH: EVQLLESGGGLVQPGGSLRLSCAASGFTFSKYFMFWVRQAPGKGLEWVSVISPSGGMTRYADSVKGRFTISRDNSKNTLYLQMNSLRAEDTAVYYCARVGYGGNSDYWGQGTLVTVSS VL: DIQMTQSPSSVSASVGDRLTIICRASQDIARWLAWYQQTPGNAPKLLIHSATSLQSGVPSRFSGSGSGTDFTLTINSLQPEDFATYYCQQADSFPLTFGGGTKVEIK
3 | 0.98 |  | XPA23 light chain P95F (Fab, V domains shown) VH: EVQLLESGGGLVQPGGSLRLSCAASGFTFSKYFMFWVRQAPGKGLEWVSVISPSGGMTRYADSVKGRFTISRDNSKNTLYLQMNSLRAEDTAVYYCARVGYGGNSDYWGQGTLVTVSS VL: DIQMTQSPSSVSASVGDRLTIICRASQDINRWLAWYQQTPGNAPKLLIHSATSLQSGVPSRFSGSGSGTDFTLTINSLQPEDFATYYCQQADSFFLTFGGGTKVEIK
4 | 0.97 |  | XPA23 light chain N30T (Fab, V domains shown) VH: EVQLLESGGGLVQPGGSLRLSCAASGFTFSKYFMFWVRQAPGKGLEWVSVISPSGGMTRYADSVKGRFTISRDNSKNTLYLQMNSLRAEDTAVYYCARVGYGGNSDYWGQGTLVTVSS VL: DIQMTQSPSSVSASVGDRLTIICRASQDITRWLAWYQQTPGNAPKLLIHSATSLQSGVPSRFSGSGSGTDFTLTINSLQPEDFATYYCQQADSFPLTFGGGTKVEIK
5 | 1.06 |  | XPA23 light chain N30W (Fab, V domains shown) VH: EVQLLESGGGLVQPGGSLRLSCAASGFTFSKYFMFWVRQAPGKGLEWVSVISPSGGMTRYADSVKGRFTISRDNSKNTLYLQMNSLRAEDTAVYYCARVGYGGNSDYWGQGTLVTVSS VL: DIQMTQSPSSVSASVGDRLTIICRASQDIWRWLAWYQQTPGNAPKLLIHSATSLQSGVPSRFSGSGSGTDFTLTINSLQPEDFATYYCQQADSFPLTFGGGTKVEIK
6 | 1.4 |  | XPA23 light chain N30Y (Fab, V domains shown) VH: EVQLLESGGGLVQPGGSLRLSCAASGFTFSKYFMFWVRQAPGKGLEWVSVISPSGGMTRYADSVKGRFTISRDNSKNTLYLQMNSLRAEDTAVYYCARVGYGGNSDYWGQGTLVTVSS VL: DIQMTQSPSSVSASVGDRLTIICRASQDIYRWLAWYQQTPGNAPKLLIHSATSLQSGVPSRFSGSGSGTDFTLTINSLQPEDFATYYCQQADSFPLTFGGGTKVEIK
7 | 0.68 |  | XPA23 light chain N30L (Fab, V domains shown) VH: EVQLLESGGGLVQPGGSLRLSCAASGFTFSKYFMFWVRQAPGKGLEWVSVISPSGGMTRYADSVKGRFTISRDNSKNTLYLQMNSLRAEDTAVYYCARVGYGGNSDYWGQGTLVTVSS VL: DIQMTQSPSSVSASVGDRLTIICRASQDILRWLAWYQQTPGNAPKLLIHSATSLQSGVPSRFSGSGSGTDFTLTINSLQPEDFATYYCQQADSFPLTFGGGTKVEIK
8 | 0.65 |  | XPA23 light chain N30I (Fab, V domains shown) VH: EVQLLESGGGLVQPGGSLRLSCAASGFTFSKYFMFWVRQAPGKGLEWVSVISPSGGMTRYADSVKGRFTISRDNSKNTLYLQMNSLRAEDTAVYYCARVGYGGNSDYWGQGTLVTVSS VL: DIQMTQSPSSVSASVGDRLTIICRASQDIIRWLAWYQQTPGNAPKLLIHSATSLQSGVPSRFSGSGSGTDFTLTINSLQPEDFATYYCQQADSFPLTFGGGTKVEIK
9 | 1.59 |  | XPA23 light chain N30F (Fab, V domains shown) VH: EVQLLESGGGLVQPGGSLRLSCAASGFTFSKYFMFWVRQAPGKGLEWVSVISPSGGMTRYADSVKGRFTISRDNSKNTLYLQMNSLRAEDTAVYYCARVGYGGNSDYWGQGTLVTVSS VL: DIQMTQSPSSVSASVGDRLTIICRASQDIFRWLAWYQQTPGNAPKLLIHSATSLQSGVPSRFSGSGSGTDFTLTINSLQPEDFATYYCQQADSFPLTFGGGTKVEIK
10 |  | no binding | XPA23 light chain L96Y (Fab, V domains shown) VH: EVQLLESGGGLVQPGGSLRLSCAASGFTFSKYFMFWVRQAPGKGLEWVSVISPSGGMTRYADSVKGRFTISRDNSKNTLYLQMNSLRAEDTAVYYCARVGYGGNSDYWGQGTLVTVSS VL: DIQMTQSPSSVSASVGDRLTIICRASQDINRWLAWYQQTPGNAPKLLIHSATSLQSGVPSRFSGSGSGTDFTLTINSLQPEDFATYYCQQADSFPYTFGGGTKVEIK
11 | 0.81 |  | XPA23 light chain N30D (Fab, V domains shown) VH: EVQLLESGGGLVQPGGSLRLSCAASGFTFSKYFMFWVRQAPGKGLEWVSVISPSGGMTRYADSVKGRFTISRDNSKNTLYLQMNSLRAEDTAVYYCARVGYGGNSDYWGQGTLVTVSS VL: DIQMTQSPSSVSASVGDRLTIICRASQDIDRWLAWYQQTPGNAPKLLIHSATSLQSGVPSRFSGSGSGTDFTLTINSLQPEDFATYYCQQADSFPLTFGGGTKVEIK
12 | 0.61 |  | XPA23 light chain N30K (Fab, V domains shown) VH: EVQLLESGGGLVQPGGSLRLSCAASGFTFSKYFMFWVRQAPGKGLEWVSVISPSGGMTRYADSVKGRFTISRDNSKNTLYLQMNSLRAEDTAVYYCARVGYGGNSDYWGQGTLVTVSS VL: DIQMTQSPSSVSASVGDRLTIICRASQDIKRWLAWYQQTPGNAPKLLIHSATSLQSGVPSRFSGSGSGTDFTLTINSLQPEDFATYYCQQADSFPLTFGGGTKVEIK
13 | 0.88 |  | XPA23 light chain P95E (Fab, V domains shown) VH: EVQLLESGGGLVQPGGSLRLSCAASGFTFSKYFMFWVRQAPGKGLEWVSVISPSGGMTRYADSVKGRFTISRDNSKNTLYLQMNSLRAEDTAVYYCARVGYGGNSDYWGQGTLVTVSS VL: DIQMTQSPSSVSASVGDRLTIICRASQDINRWLAWYQQTPGNAPKLLIHSATSLQSGVPSRFSGSGSGTDFTLTINSLQPEDFATYYCQQADSFELTFGGGTKVEIK
14 | 0.64 |  | XPA23 light chain N30E (Fab, V domains shown) VH: EVQLLESGGGLVQPGGSLRLSCAASGFTFSKYFMFWVRQAPGKGLEWVSVISPSGGMTRYADSVKGRFTISRDNSKNTLYLQMNSLRAEDTAVYYCARVGYGGNSDYWGQGTLVTVSS VL: DIQMTQSPSSVSASVGDRLTIICRASQDIERWLAWYQQTPGNAPKLLIHSATSLQSGVPSRFSGSGSGTDFTLTINSLQPEDFATYYCQQADSFPLTFGGGTKVEIK
15 | 1 |  | XPA23 light chain N30H (Fab, V domains shown) VH: EVQLLESGGGLVQPGGSLRLSCAASGFTFSKYFMFWVRQAPGKGLEWVSVISPSGGMTRYADSVKGRFTISRDNSKNTLYLQMNSLRAEDTAVYYCARVGYGGNSDYWGQGTLVTVSS VL: DIQMTQSPSSVSASVGDRLTIICRASQDIHRWLAWYQQTPGNAPKLLIHSATSLQSGVPSRFSGSGSGTDFTLTINSLQPEDFATYYCQQADSFPLTFGGGTKVEIK
16 | 0.74 |  | XPA23 light chain N30R (Fab, V domains shown) VH: EVQLLESGGGLVQPGGSLRLSCAASGFTFSKYFMFWVRQAPGKGLEWVSVISPSGGMTRYADSVKGRFTISRDNSKNTLYLQMNSLRAEDTAVYYCARVGYGGNSDYWGQGTLVTVSS VL: DIQMTQSPSSVSASVGDRLTIICRASQDIRRWLAWYQQTPGNAPKLLIHSATSLQSGVPSRFSGSGSGTDFTLTINSLQPEDFATYYCQQADSFPLTFGGGTKVEIK
17 | 0.71 |  | XPA23 light chain N30G (Fab, V domains shown) VH: EVQLLESGGGLVQPGGSLRLSCAASGFTFSKYFMFWVRQAPGKGLEWVSVISPSGGMTRYADSVKGRFTISRDNSKNTLYLQMNSLRAEDTAVYYCARVGYGGNSDYWGQGTLVTVSS VL: DIQMTQSPSSVSASVGDRLTIICRASQDIGRWLAWYQQTPGNAPKLLIHSATSLQSGVPSRFSGSGSGTDFTLTINSLQPEDFATYYCQQADSFPLTFGGGTKVEIK
18 | 0.89 |  | XPA23 light chain N30V (Fab, V domains shown) VH: EVQLLESGGGLVQPGGSLRLSCAASGFTFSKYFMFWVRQAPGKGLEWVSVISPSGGMTRYADSVKGRFTISRDNSKNTLYLQMNSLRAEDTAVYYCARVGYGGNSDYWGQGTLVTVSS VL: DIQMTQSPSSVSASVGDRLTIICRASQDIVRWLAWYQQTPGNAPKLLIHSATSLQSGVPSRFSGSGSGTDFTLTINSLQPEDFATYYCQQADSFPLTFGGGTKVEIK
19 | 0.72 |  | XPA23 light chain N30S (Fab, V domains shown) VH: EVQLLESGGGLVQPGGSLRLSCAASGFTFSKYFMFWVRQAPGKGLEWVSVISPSGGMTRYADSVKGRFTISRDNSKNTLYLQMNSLRAEDTAVYYCARVGYGGNSDYWGQGTLVTVSS VL: DIQMTQSPSSVSASVGDRLTIICRASQDISRWLAWYQQTPGNAPKLLIHSATSLQSGVPSRFSGSGSGTDFTLTINSLQPEDFATYYCQQADSFPLTFGGGTKVEIK
20 | 0.6 |  | XPA23 light chain N30Q (Fab, V domains shown) VH: EVQLLESGGGLVQPGGSLRLSCAASGFTFSKYFMFWVRQAPGKGLEWVSVISPSGGMTRYADSVKGRFTISRDNSKNTLYLQMNSLRAEDTAVYYCARVGYGGNSDYWGQGTLVTVSS VL: DIQMTQSPSSVSASVGDRLTIICRASQDIQRWLAWYQQTPGNAPKLLIHSATSLQSGVPSRFSGSGSGTDFTLTINSLQPEDFATYYCQQADSFPLTFGGGTKVEIK
21 | 1.32 |  | XPA23 light chain P95D (Fab, V domains shown) VH: EVQLLESGGGLVQPGGSLRLSCAASGFTFSKYFMFWVRQAPGKGLEWVSVISPSGGMTRYADSVKGRFTISRDNSKNTLYLQMNSLRAEDTAVYYCARVGYGGNSDYWGQGTLVTVSS VL: DIQMTQSPSSVSASVGDRLTIICRASQDINRWLAWYQQTPGNAPKLLIHSATSLQSGVPSRFSGSGSGTDFTLTINSLQPEDFATYYCQQADSFDLTFGGGTKVEIK
22 | 0.69 |  | XPA23 light chain N30P (Fab, V domains shown) VH: EVQLLESGGGLVQPGGSLRLSCAASGFTFSKYFMFWVRQAPGKGLEWVSVISPSGGMTRYADSVKGRFTISRDNSKNTLYLQMNSLRAEDTAVYYCARVGYGGNSDYWGQGTLVTVSS VL: DIQMTQSPSSVSASVGDRLTIICRASQDIPRWLAWYQQTPGNAPKLLIHSATSLQSGVPSRFSGSGSGTDFTLTINSLQPEDFATYYCQQADSFPLTFGGGTKVEIK
